{"source": "patent US20200339670A1", "about": "(published 2020)", "key": {"[1]": {"biological_target": "the molecule itself", "assay": "immunoblot for ASC over incubation time (self-association)"}, "TAMRA-labelled Aβ1-42": {"biological_target": "T1, TAMRA-labelled Aβ1-42 (UniProt P05067 672-713, TAMRA label (position not given))", "T1 construct": "domain: Aβ1-42; also called TAMRA-Aβ1-42; TAMRA-Aβ", "T1 sequence (P05067 672-713 limits assumed)": "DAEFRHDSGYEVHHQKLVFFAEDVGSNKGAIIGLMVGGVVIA", "assay": "flow cytometry of supernatants of immunostimulated primary microglia incubated with Aβ1-42", "method": "Supernatants containing ASC specks were subsequently incubated with Aβ₁₋₄₂ for 6 h and thereafter analyzed by flow cytometry. (b) Upper panel: Immunoprecipitation and immunoblot detection of ASC in unstimulated, immunoactivated wildtype (wt) and ASC knockout (ASC^{-/-}) macrophages. ASC monomer detection is restricted to supernatants of immunoactivated, ASC-competent wt cells and absent in unstimulated wt cells or ASC^{-/-} macrophages. Lower panel: Immunoprecipitation of ASC followed by immunoblot detection of Aβ under the same experimental conditions as described for the upper panel. ASC bound Aβ is exclusively detected in supernatants derived from immunoactivated wt macrophages but not from unstimulated wt or ASC^{-/-} cells. (c) Upper panel: Immunoprecipitation of ASC and immunoblot detection of ASC in unstimulated, immunoactivated wt and ASC^{-/-} microglia. ASC monomer detection is restricted to supernatants of immunoactivated ASC competent wt cells and absent in unstimulated wt cells or ASC^{-/-} macrophages. […] ASC bound Aβ is exclusively detected in supernatants derived from immunoactivated wt microglia but not from unstimulated wt or ASC^{-/-} cells. […] (f) Flow cytometry quantification of ASC-TAMRA-labelled […] after immunostimulation of microglia. […]"}}, "data": [{"binder": "recombinant mutant ASC specks (recASC; K21A, K22A and K26A) in the ASC-PYD domain (other, Made and prepared as the wild-type recombinant protein; also called recASC K21A, K22A, K26A; ASC-PYD mutant; not shown: TEV protease cleavage site; mCherry; C-terminal hexa-histidine tag from pET-23a) MGRARDAILDALENLTAEELAAFKLALLSVPLREGYGRIPRGALLSMDALDLTDKLVSFYLETYGAELTANVLRDMGLQEMAGQLQAATHQGSGAAPAGIQAPPQSAAKPGLHFIDQHRAALIARVTNVEWLLDALYGKVLTDEQYQAVRAEPTNPSKMRKLFSFTPAWNWTCKDLLLQALRESQSYLVEDLERS", "values": [{"measurement": "binding result", "setting": "[1]", "result": "no binding"}]}, {"binder": "ASC specks released by immunostimulated wild-type primary murine microglia or murine macrophages (other, UniProt Q9EPB4 1-193, looked up, Endogenous protein in cell-free supernatants; aggregated (speck) form; also called Microglia released ASC specks) MGRARDAILDALENLSGDELKKFKMKLLTVQLREGYGRIPRGALLQMDAIDLTDKLVSYYLESYGLELTMTVLRDMGLQELAEQLQTTKEESGAVAAAASVPAQSTARTGHFVDQHRQALIARVTEVDGVLDALHGSVLTEGQYQAVRAETTSQDKMRKLFSFVPSWNLTCKDSLLQALKEIHPYLVMDLEQS", "values": [{"measurement": "binding result", "setting": "TAMRA-labelled Aβ1-42", "result": "binds"}]}]}
